Measured values: the supplement of paper PMC11246515
± gives the standard deviation of the averaged measurements.

Assay: total protein half-life in vivo (active degradation + dilution); higher = more stable protein
[1] = E. coli NCM3722 delta-clpP delta-lon delta-hslV, growth: N-lim chemostat, doubling time 6 h
[2] = E. coli NCM3722 delta-clpP, growth: N-lim chemostat, doubling time 6 h
[3] = E. coli NCM3722 delta-hslV, growth: N-lim chemostat, doubling time 6 h
[4] = E. coli NCM3722 delta-lon, growth: N-lim chemostat, doubling time 6 h
[5] = E. coli NCM3722 delta-smpB, growth: N-lim chemostat, doubling time 6 h
[6] = wild type E. coli NCM3722, growth: C-lim chemostat, doubling time 3 h
[7] = wild type E. coli NCM3722, growth: C-lim chemostat, doubling time 6 h
[8] = wild type E. coli NCM3722, growth: C-lim chemostat, doubling time 12 h
[9] = wild type E. coli NCM3722, growth: N-lim chemostat, doubling time 6 h
[10] = wild type E. coli NCM3722, growth: N-lim chemostat, doubling time 12 h
[11] = wild type E. coli NCM3722, growth: P-lim chemostat, doubling time 6 h
[12] = wild type E. coli NCM3722, growth: P-lim chemostat, doubling time 12 h

Sequence: MKIVIAPDSFKESLSAEKCCQAIKAGFSTLFPDANYICLPIADGGEGTVDAMVAATGGNIVTLEVCGPMGEKVNAFYGLTGDGKTAVIEMAAASGLMLVAPEKRNPLLASSFGTGELIRHALDNDIRHIILGIGGSATVDGGMGMAQALGVRFLDADGQALAANGGNLARVASIEMDECDPRLANCHIEVACDVDNPLVGARGAAAVFGPQKGATPEMVEELEQGLQNYARVLQQQTEINVCQMAGGGAAGGMGIAAAVFLNADIKPGIEIVLNAVNLAQAVQGAALVITGEGRIDSQTAGGKAPLGVASVAKQFNVPVIGIAGVLGDGVEVVHQYGIDAVFSILPRLAPLAEVLASGETNLFNSARNIACAIKIGQGIKN
- total protein half-life in vivo [1]: 4.41 ± 0.66 h
- total protein half-life in vivo [2]: 4.58 ± 0.6 h
- total protein half-life in vivo [3]: 4.47 ± 0.077 h
- total protein half-life in vivo [4]: 4.62 ± 0.21 h
- total protein half-life in vivo [5]: 4.3 ± 0.45 h
- total protein half-life in vivo [6]: 3.05 ± 0.13 h
- total protein half-life in vivo [7]: 4.82 ± 0.53 h
- total protein half-life in vivo [8]: 10.4 ± 1.2 h
- total protein half-life in vivo [9]: 5.7 ± 1.2 h
- total protein half-life in vivo [10]: 8.201 ± 0.034 h
- total protein half-life in vivo [11]: 5.05 ± 0.15 h
- total protein half-life in vivo [12]: 9.23 ± 0.27 h

Sequence: MTTNYIFVTGGVVSSLGKGIAAASLAAILEARGLNVTIMKLDPYINVDPGTMSPIQHGEVFVTEDGAETDLDLGHYERFIRTKMSRRNNFTTGRIYSDVLRKERRGDYLGATVQVIPHITNAIKERVLEGGEGHDVVLVEIGGTVGDIESLPFLEAIRQMAVEIGREHTLFMHLTLVPYMAASGEVKTKPTQHSVKELLSIGIQPDILICRSDRAVPANERAKIALFCNVPEKAVISLKDVDSIYKIPGLLKSQGLDDYICKRFSLNCPEANLSEWEQVIFEEANPVSEVTIGMVGKYIELPDAYKSVIEALKHGGLKNRVSVNIKLIDSQDVETRGVEILKGLDAILVPGGFGYRGVEGMITTARFARENNIPYLGICLGMQVALIDYARHVANMENANSTEFVPDCKYPVVALITEWRDENGNVEVRSEKSDLGGTMRLGAQQCQLVDDSLVRQLYNAPTIVERHRHRYEVNNMLLKQIEDAGLRVAGRSGDDQLVEIIEVPNHPWFVACQFHPEFTSTPRDGHPLFAGFVKAASEFQKRQAK [P0A7E5]
- total protein half-life in vivo [1]: 6.37 ± 0.47 h
- total protein half-life in vivo [2]: 5.64 ± 0.39 h
- total protein half-life in vivo [3]: 5.16 ± 0.13 h
- total protein half-life in vivo [4]: 5.75 ± 0.15 h
- total protein half-life in vivo [5]: 5.11 ± 0.71 h
- total protein half-life in vivo [6]: 3.06 ± 0.25 h
- total protein half-life in vivo [7]: 6.11 ± 0.39 h
- total protein half-life in vivo [8]: 12.3 ± 1.2 h
- total protein half-life in vivo [9]: 5.2 ± 0.22 h
- total protein half-life in vivo [10]: 9.4 ± 0.35 h
- total protein half-life in vivo [11]: 6.161 ± 0.058 h
- total protein half-life in vivo [12]: 13.1 ± 0.8 h

Sequence: MQQLASFLSGTWQSGRGRSRLIHHAISGEALWEVTSEGLDMAAARQFAIEKGAPALRAMTFIERAAMLKAVAKHLLSEKERFYALSAQTGATRADSWVDIEGGIGTLFTYASLGSRELPDDTLWPEDELIPLSKEGGFAARHLLTSKSGVAVHINAFNFPCWGMLEKLAPTWLGGMPAIIKPATATAQLTQAMVKSIVDSGLVPEGAISLICGSAGDLLDHLDSQDVVTFTGSAATGQMLRVQPNIVAKSIPFTMEADSLNCCVLGEDVTPDQPEFALFIREVVREMTTKAGQKCTAIRRIIVPQALVNAVSDALVARLQKVVVGDPAQEGVKMGALVNAEQRADVQEKVNILLAAGCEIRLGGQADLSAAGAFFPPTLLYCPQPDETPAVHATEAFGPVATLMPAQNQRHALQLACAGGGSLAGTLVTADPQIARQFIADAARTHGRIQILNEESAKESTGHGSPLPQLVHGGPGRAGGGEELGGLRAVKHYMQRTAVQGSPTMLAAISKQWVRGAKVEEDRIHPFRKYFEELQPGDSLLTPRRTMTEADIVNFACLSGDHFYAHMDKIAAAESIFGERVVHGYFVLSAAAGLFVDAGVGPVIANYGLESLRFIEPVKPGDTIQVRLTCKRKTLKKQRSAEEKPTGVVEWAVEVFNQHQTPVALYSILTLVARQHGDFVD
- total protein half-life in vivo [1]: 4.86 h
- total protein half-life in vivo [10]: 6.08 h
- total protein half-life in vivo [12]: 7.41 h

Sequence: MKRAFIMVLDSFGIGATEDAERFGDVGADTLGHIAEACAKGEADNGRKGPLNLPNLTRLGLAKAHEGSTGFIPAGMDGNAEVIGAYAWAHEMSSGKDTPSGHWEIAGVPVLFEWGYFSDHENSFPQELLDKLVERANLPGYLGNCHSSGTVILDQLGEEHMKTGKPIFYTSADSVFQIACHEETFGLDKLYELCEIAREELTNGGYNIGRVIARPFIGDKAGNFQRTGNRHDLAVEPPAPTVLQKLVDEKHGQVVSVGKIADIYANCGITKKVKATGLDALFDATIKEMKEAGDNTIVFTNFVDFDSSWGHRRDVAGYAAGLELFDRRLPELMSLLRDDDILILTADHGCDPTWTGTDHTREHIPVLVYGPKVKPGSLGHRETFADIGQTLAKYFGTSDMEYGKAMF [P0A6K6]
- total protein half-life in vivo [1]: 4.63 ± 0.33 h
- total protein half-life in vivo [2]: 4.5 ± 0.27 h
- total protein half-life in vivo [3]: 4.39 ± 0.2 h
- total protein half-life in vivo [4]: 4.1 ± 0.049 h
- total protein half-life in vivo [5]: 3.41 ± 0.21 h
- total protein half-life in vivo [6]: 2.41 ± 0.5 h
- total protein half-life in vivo [7]: 4.68 ± 0.54 h
- total protein half-life in vivo [8]: 9 ± 0.31 h
- total protein half-life in vivo [9]: 4 ± 0.39 h
- total protein half-life in vivo [10]: 6.61 ± 0.31 h
- total protein half-life in vivo [11]: 3.91 ± 0.25 h
- total protein half-life in vivo [12]: 7.26 ± 0.64 h

Sequence: MLPDSSVRLNKYISESGICSRREADRYIEQGNVFLNGKRATIGDQVKPGDVVKVNGQLIEPREAEDLVLIALNKPVGIVSTTEDGERDNIVDFVNHSKRVFPIGRLDKDSQGLIFLTNHGDLVNKILRAGNDHEKEYLVTVDKPITEEFIRGMSAGVPILGTVTKKCKVKKEAPFVFRITLVQGLNRQIRRMCEHFGYEVKKLERTRIMNVSLSGIPLGEWRDLTDDELIDLFKLIENSSSEVKPKAKAKPKTAGIKRPVVKMEKTAEKGGRPASNGKRFTSPGRKKKGR
- total protein half-life in vivo [1]: 6.01 ± 1.2 h
- total protein half-life in vivo [2]: 3.751 ± 0.021 h
- total protein half-life in vivo [3]: 3.44 ± 0.14 h
- total protein half-life in vivo [4]: 5.61 ± 0.41 h
- total protein half-life in vivo [5]: 3.43 ± 0.087 h
- total protein half-life in vivo [6]: 2.2 ± 0.11 h
- total protein half-life in vivo [7]: 4.11 ± 0.4 h
- total protein half-life in vivo [8]: 5.93 ± 0.93 h
- total protein half-life in vivo [9]: 3.29 ± 0.094 h
- total protein half-life in vivo [10]: 5.37 ± 0.073 h
- total protein half-life in vivo [11]: 2.59 ± 0.18 h
- total protein half-life in vivo [12]: 5.07 ± 0.21 h

Sequence: MIIKRTPQAASPLASWLSYLENLHSKTIDLGLERVSLVAARLGVLKPAPFVFTVAGTNGKGTTCRTLESILMAAGYKVGVYSSPHLVRYTERVRVQGQELPESAHTASFAEIESARGDISLTYFEYGTLSALWLFKQAQLDVVILEVGLGGRLDATNIVDADVAVVTSIALDHTDWLGPDRESIGREKAGIFRSEKPAIVGEPEMPSTIADVAQEKGALLQRRGVEWNYSVTDHDWAFSDAHGTLENLPLPLVPQPNAATALAALRASGLEVSENAIRDGIASAILPGRFQIVSESPRVIFDVAHNPHAAEYLTGRMKALPKNGRVLAVIGMLHDKDIAGTLAWLKSVVDDWYCAPLEGPRGATAEQLLEHLGNGKSFDSVAQAWDAAMADAKAEDTVLVCGSFHTVAHVMEVIDARRSGGK
- total protein half-life in vivo [1]: 4.62 ± 0.55 h
- total protein half-life in vivo [2]: 4.95 ± 1.1 h
- total protein half-life in vivo [3]: 4.08 ± 0.39 h
- total protein half-life in vivo [5]: 3.813 ± 0.021 h
- total protein half-life in vivo [6]: 3.151 ± 0.024 h
- total protein half-life in vivo [7]: 5.09 ± 0.13 h
- total protein half-life in vivo [8]: 9.2 ± 1.6 h
- total protein half-life in vivo [9]: 3.807 ± 0.036 h
- total protein half-life in vivo [10]: 6.07 ± 0.99 h
- total protein half-life in vivo [11]: 5.34 ± 0.23 h
- total protein half-life in vivo [12]: 9.6 ± 0.66 h

Sequence: MSQLTHINAAGEAHMVDVSAKAETVREARAEAFVTMRSETLAMIIDGRHHKGDVFATARIAGIQAAKRTWDLIPLCHPLMLSKVEVNLQAEPEHNRVRIETLCRLTGKTGVEMEALTAASVAALTIYDMCKAVQKDMVIGPVRLLAKSGGKSGDFKVEADD [P0A738]
- total protein half-life in vivo [1]: 5.289 ± 0.028 h
- total protein half-life in vivo [2]: 5.03 ± 0.15 h
- total protein half-life in vivo [3]: 4.56 ± 0.47 h
- total protein half-life in vivo [4]: 4.41 ± 0.087 h
- total protein half-life in vivo [5]: 3.95 ± 0.17 h
- total protein half-life in vivo [6]: 2.9 ± 0.24 h
- total protein half-life in vivo [7]: 4.96 ± 0.099 h
- total protein half-life in vivo [8]: 8.28 ± 0.49 h
- total protein half-life in vivo [9]: 4.1 ± 0.28 h
- total protein half-life in vivo [10]: 5.91 ± 0.19 h
- total protein half-life in vivo [11]: 4.92 ± 0.059 h
- total protein half-life in vivo [12]: 9.42 ± 0.47 h
